# Laboratory results: PMC8426336
# Target: Trimeric form of SARS-CoV-2 RBD (T-RBD) (SARS-CoV-2 | not stated)
# Assay: western blot under reduced and nonreduced conditions
substance,measurement,value
Trimeric form of SARS-CoV-2 RBD (T-RBD),stoichiometry N,3
